Assay results from publication PMC8548916.

Molecular target: Cnm1 (contact nucleus mitochondria 1) tagged with GFP on its C terminus (S. cerevisiae)
Test: co-IP; GFP-Trap beads precipitate Cnm1-GFP from cleared yeast lysate (1% digitonin, 150 mM NaCl, 50 mM Tris-HCl pH 8.0, 5% glycerol, 1 mM MgCl2), 1 h at 4°C; Western blot with antibodies against GFP and mCherry; enrichment by densitometry

fold enrichment in the immunoprecipitate relative to Tom20: 2 fold
Substance: Tom70 tagged with mCherry on its C terminus (from UniProt P07213 1-617) (natural protein)
